Starred links: 1 amine or outer side, 2 acyl side, 3 side chain; linkers in the order of their positions; H or OH if unused. Groups on a side chain read outwards from the residue. No end group written: not given here. *: point of attachment. C20 diacid = O=C(O)CCCCCCCCCCCCCCCCCCC(=O)*; C18 diacid = O=C(O)CCCCCCCCCCCCCCCCC(=O)*; γGlu = O=C(O)[C@H](CCC(=O)[*:2])N[*:1]; AEEA = NCCOCCOCC(=O)O
B1: peptide of SEQ ID NO: 68 (peptide)
peptide: IVLSLDVPIKLK([AEEA-AEEA-γGlu-C18 diacid])QILLEQERQKKQREQAETNKQILAQV-NH2
modifications: N-terminus assumed
SMILES: CC[C@H](C)[C@H](N)C(=O)N[C@H](C(=O)N[C@@H](CC(C)C)C(=O)N[C@@H](CO)C(=O)N[C@@H](CC(C)C)C(=O)N[C@@H](CC(=O)O)C(=O)N[C@H](C(=O)N1CCC[C@H]1C(=O)N[C@H](C(=O)N[C@@H](CCCCN)C(=O)N[C@@H](CC(C)C)C(=O)N[C@@H](CCCCNC(=O)COCCOCCNC(=O)COCCOCCNC(=O)CC[C@H](NC(=O)CCCCCCCCCCCCCCCCC(=O)O)C(=O)O)C(=O)N[C@@H](CCC(N)=O)C(=O)N[C@H](C(=O)N[C@@H](CC(C)C)C(=O)N[C@@H](CC(C)C)C(=O)N[C@@H](CCC(=O)O)C(=O)N[C@@H](CCC(N)=O)C(=O)N[C@@H](CCC(=O)O)C(=O)N[C@@H](CCCNC(=N)N)C(=O)N[C@@H](CCC(N)=O)C(=O)N[C@@H](CCCCN)C(=O)N[C@@H](CCCCN)C(=O)N[C@@H](CCC(N)=O)C(=O)N[C@@H](CCCNC(=N)N)C(=O)N[C@@H](CCC(=O)O)C(=O)N[C@@H](CCC(N)=O)C(=O)N[C@@H](C)C(=O)N[C@@H](CCC(=O)O)C(=O)N[C@H](C(=O)N[C@@H](CC(N)=O)C(=O)N[C@@H](CCCCN)C(=O)N[C@@H](CCC(N)=O)C(=O)N[C@H](C(=O)N[C@@H](CC(C)C)C(=O)N[C@@H](C)C(=O)N[C@@H](CCC(N)=O)C(=O)N[C@H](C(N)=O)C(C)C)[C@@H](C)CC)[C@@H](C)O)[C@@H](C)CC)[C@@H](C)CC)C(C)C)C(C)C
B2: peptide of SEQ ID NO: 35 (peptide)
peptide: IVLSLDVPIKLK([AEEA-AEEA-γGlu-C18 diacid])KILLEQEKQKKQREQAETNKQILAQV-NH2
modifications: N-terminus assumed
SMILES: CC[C@H](C)[C@H](N)C(=O)N[C@H](C(=O)N[C@@H](CC(C)C)C(=O)N[C@@H](CO)C(=O)N[C@@H](CC(C)C)C(=O)N[C@@H](CC(=O)O)C(=O)N[C@H](C(=O)N1CCC[C@H]1C(=O)N[C@H](C(=O)N[C@@H](CCCCN)C(=O)N[C@@H](CC(C)C)C(=O)N[C@@H](CCCCNC(=O)COCCOCCNC(=O)COCCOCCNC(=O)CC[C@H](NC(=O)CCCCCCCCCCCCCCCCC(=O)O)C(=O)O)C(=O)N[C@@H](CCCCN)C(=O)N[C@H](C(=O)N[C@@H](CC(C)C)C(=O)N[C@@H](CC(C)C)C(=O)N[C@@H](CCC(=O)O)C(=O)N[C@@H](CCC(N)=O)C(=O)N[C@@H](CCC(=O)O)C(=O)N[C@@H](CCCCN)C(=O)N[C@@H](CCC(N)=O)C(=O)N[C@@H](CCCCN)C(=O)N[C@@H](CCCCN)C(=O)N[C@@H](CCC(N)=O)C(=O)N[C@@H](CCCNC(=N)N)C(=O)N[C@@H](CCC(=O)O)C(=O)N[C@@H](CCC(N)=O)C(=O)N[C@@H](C)C(=O)N[C@@H](CCC(=O)O)C(=O)N[C@H](C(=O)N[C@@H](CC(N)=O)C(=O)N[C@@H](CCCCN)C(=O)N[C@@H](CCC(N)=O)C(=O)N[C@H](C(=O)N[C@@H](CC(C)C)C(=O)N[C@@H](C)C(=O)N[C@@H](CCC(N)=O)C(=O)N[C@H](C(N)=O)C(C)C)[C@@H](C)CC)[C@@H](C)O)[C@@H](C)CC)[C@@H](C)CC)C(C)C)C(C)C

What was measured:
rat CRF2R α receptor = rat CRF2R α receptor (rat, UniProt P47866 20-411); test: cell-based or functional assay
[1] = biological target: T1, anti-target CRF1R receptor (UniProt P34998 24-415, limits assumed); test: cell-based or functional assay
T1 sequence (looked up): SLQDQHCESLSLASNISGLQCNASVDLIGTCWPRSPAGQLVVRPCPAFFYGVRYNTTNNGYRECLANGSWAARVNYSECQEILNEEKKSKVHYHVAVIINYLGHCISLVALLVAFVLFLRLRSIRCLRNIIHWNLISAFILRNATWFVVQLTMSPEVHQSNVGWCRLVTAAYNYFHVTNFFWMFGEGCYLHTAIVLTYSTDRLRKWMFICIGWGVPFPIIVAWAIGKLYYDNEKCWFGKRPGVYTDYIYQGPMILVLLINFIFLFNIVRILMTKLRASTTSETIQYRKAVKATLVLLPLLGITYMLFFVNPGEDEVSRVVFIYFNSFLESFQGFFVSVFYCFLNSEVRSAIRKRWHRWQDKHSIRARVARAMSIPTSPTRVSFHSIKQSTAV

[2] = biological target: T2, endogenous human CRF2 (NCI-H82 cells) (human, UniProt Q13324 20-411); test: cell-based or functional assay
T2 sequence (looked up): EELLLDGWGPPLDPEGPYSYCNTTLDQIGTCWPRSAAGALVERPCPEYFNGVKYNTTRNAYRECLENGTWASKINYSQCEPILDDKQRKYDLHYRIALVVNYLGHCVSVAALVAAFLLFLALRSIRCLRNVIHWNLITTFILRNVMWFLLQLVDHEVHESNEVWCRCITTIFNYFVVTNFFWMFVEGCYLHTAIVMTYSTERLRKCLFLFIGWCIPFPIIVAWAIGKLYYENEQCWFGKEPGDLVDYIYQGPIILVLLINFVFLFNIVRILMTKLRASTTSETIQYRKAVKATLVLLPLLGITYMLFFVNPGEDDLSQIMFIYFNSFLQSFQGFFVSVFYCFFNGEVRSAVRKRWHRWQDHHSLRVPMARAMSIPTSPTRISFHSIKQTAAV

[3] = biological target: T3, recombinant human CRF2 (HEK cell membranes) (human, UniProt Q13324 1-411); test: Hill coefficient of the competition curve against [125]sauvagine, HEK membranes with recombinant human CRF2
T3 construct: Whole receptor in membranes prepared from HEK cells; also called CRF2a (h); CRF2 receptor
T3 sequence (looked up): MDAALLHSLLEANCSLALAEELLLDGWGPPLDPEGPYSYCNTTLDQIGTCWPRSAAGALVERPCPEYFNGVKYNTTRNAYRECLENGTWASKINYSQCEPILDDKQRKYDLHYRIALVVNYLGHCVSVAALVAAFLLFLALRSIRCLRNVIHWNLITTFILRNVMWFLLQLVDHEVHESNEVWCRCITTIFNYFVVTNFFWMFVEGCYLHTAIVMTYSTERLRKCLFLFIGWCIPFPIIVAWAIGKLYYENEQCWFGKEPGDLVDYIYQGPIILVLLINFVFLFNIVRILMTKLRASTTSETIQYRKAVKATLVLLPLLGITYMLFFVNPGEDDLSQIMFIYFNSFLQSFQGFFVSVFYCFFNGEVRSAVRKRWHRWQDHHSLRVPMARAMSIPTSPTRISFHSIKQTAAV
Protocol: (§1) HEK cells expressing recombinant human CRF2 were used as a source of receptor for membrane preparation.
(§2) IC50 values (concentration causing a half-maximal inhibition of control specific binding) and Hill coefficients (nH) were determined by non-linear regression analysis of the competition curves generated with mean replicate values using Hill equation curve fitting. The inhibition constants (Ki) were calculated using the Cheng Prusoff equation [Ki=IC50/(1+L/KD) where L is the concentration of radioligand in the assay, and KD is the affinity of the radioligand for the receptor). A Scatchard plot was used to determine the KD.

[4] = biological target: T3, recombinant human CRF2 (HEK cell …); test: radioligand competition against [125]sauvagine (0.1 nM), HEK membranes with recombinant human CRF2; Cheng Prusoff
Protocol: as §1, §2

Row | Binder | EC50 [nM], 0% HSA (cAMP, A7R5 cells) (rat CRF2R α receptor) | EC50[nM] 0% HSA (cAMP, CRF1R-overexpression CHO cells) [1] | Emax (%) (cAMP, CRF1R-overexpression CHO cells) [1] | EC50 [nM] (cAMP, NCI-H82 cells) [2] | nH [3] | Ki [4]
1 | FTLSLDVPTKIK([AEEA-AEEA-γGlu-C20 diacid])QILLKQQKQKKERQQAEKNKQLLEQI-NH2 [peptide of SEQ ID NO: 59] | 0.34 nM | > 1000 nM | 11.1% | 6.8 nM | 0.6 | 7.2 nM
2 | B1 | 1.74 nM | > 1000 nM | 12.3% | – | 0.8 | 5.4 nM
3 | B2 | 0.81 nM | > 1000 nM | 1.77% | 23 nM | 1.7 | 7.9 nM
